Sequences and labels used below:
B1: Progranulin (Homo sapiens), P28799 (parent)
chain: MWTLVSWVALTAGLVAGTRCPDGQFCPVACCLDPGGASYSCCRPLLDKWPTTLSRHLGGPCQVDAHCSAGHSCIFTVSGTSSCCPFPEAVACGDGHHCCPRGFHCSADGRSCFQRSGNNSVGAIQCPDSQFECPDFSTCCVMVDGSWGCCPMPQASCCEDRVHCCPHGAFCDLVHTRCITPTGTHPLAKKLPAQRTNRAVALSSSVMCPDARSRCPDGSTCCELPSGKYGCCPMPNATCCSDHLHCCPQDTVCDLIQSKCLSKENATTDLLTKLPAHTVGDVKCDMEVSCPDGYTCCRLQSGAWGCCPFTQAVCCEDHIHCCPAGFTCDTQKGTCEQGPHQVPWMEKAPAHLSLPDPQALKRDVPCDNVSSCPSSDTCCQLTSGEWGCCPIPEAVCCSDHQHCCPQGYTCVAEGQCQRGSEIVAGLEKMPARRASLSHPRDIGCDQHTSCPVGQTCCPSLGGSWACCQLPHAVCCEDRQHCCPAGYTCNVKARSCEKEVVSAQPATFLARSPHVGVKDVECGEGHFCHDNQTCCRDNRQGWACCPYRQGVCCADRRHCCPAGFRCAARGTKCLRREAPRWDAPLRDPALRQLL
B2: Estrogen receptor beta (Homo sapiens), Q92731-3 (parent)
chain: MDIKNSPSSLNSPSSYNCSQSILPLEHGSIYIPSSYVDSHHEYPAMTFYSPAVMNYSIPSNVTNLEGGPGRQTTSPNVLWPTPGHLSPLVVHRQLSHLYAEPQKSPWCEARSLEHTLPVNRETLKRKVSGNRCASPVTGPGSKRDAHFCAVCSDYASGYHYGVWSCEGCKAFFKRSIQGHNDYICPATNQCTIDKNRRKSCQACRLRKCYEVGMVKCGSRRERCGYRLVRRQRSADEQLHCAGKAKRSGGHAPRVRELLLDALSPEQLVLTLLEAEPPHVLISRPSAPFTEASMMMSLTKLADKELVHMISWAKKIPGMRGNA
partner: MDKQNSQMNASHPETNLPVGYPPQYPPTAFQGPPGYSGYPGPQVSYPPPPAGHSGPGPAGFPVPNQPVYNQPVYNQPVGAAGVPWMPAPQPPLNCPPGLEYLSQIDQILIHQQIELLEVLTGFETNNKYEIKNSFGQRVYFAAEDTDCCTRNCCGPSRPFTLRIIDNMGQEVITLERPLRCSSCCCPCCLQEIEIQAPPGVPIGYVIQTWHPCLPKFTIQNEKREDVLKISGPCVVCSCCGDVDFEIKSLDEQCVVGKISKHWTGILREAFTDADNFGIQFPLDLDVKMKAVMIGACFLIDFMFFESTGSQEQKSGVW
B3: Ribonucleoside-diphosphate reductase subunit M2 B (Homo sapiens), Q7LG56 (parent)
chain: MGDPERPEAAGLDQDERSSSDTNESEIKSNEEPLLRKSSRRFVIFPIQYPDIWKMYKQAQASFWTAEEVDLSKDLPHWNKLKADEKYFISHILAFFAASDGIVNENLVERFSQEVQVPEARCFYGFQILIENVHSEMYSLLIDTYIRDPKKREFLFNAIETMPYVKKKADWALRWIADRKSTFGERVVAFAAVEGVFFSGSFAAIFWLKKRGLMPGLTFSNELISRDEGLHCDFACLMFQYLVNKPSEERVREIIVDAVKIEQEFLTEALPVGLIGMNCILMKQYIEFVADRLLVELGFSKVFQAENPFDFMENISLEGKTNFFEKRVSEYQRFAVMAETTDNVFTLDADF
partner: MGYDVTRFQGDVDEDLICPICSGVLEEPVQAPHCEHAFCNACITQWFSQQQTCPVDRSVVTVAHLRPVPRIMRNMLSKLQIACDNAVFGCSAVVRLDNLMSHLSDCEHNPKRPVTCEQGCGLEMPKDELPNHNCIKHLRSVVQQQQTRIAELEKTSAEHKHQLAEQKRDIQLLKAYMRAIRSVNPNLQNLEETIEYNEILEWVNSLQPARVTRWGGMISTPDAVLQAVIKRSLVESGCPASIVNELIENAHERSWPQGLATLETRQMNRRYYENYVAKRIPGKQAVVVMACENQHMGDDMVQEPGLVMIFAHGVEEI

Variants of B1 are the subject of one test. The conditions noted are these: with hxa1_human HOXA1, P49639.
Sequence of hxa1_human HOXA1, P49639 (P49639 whole entry): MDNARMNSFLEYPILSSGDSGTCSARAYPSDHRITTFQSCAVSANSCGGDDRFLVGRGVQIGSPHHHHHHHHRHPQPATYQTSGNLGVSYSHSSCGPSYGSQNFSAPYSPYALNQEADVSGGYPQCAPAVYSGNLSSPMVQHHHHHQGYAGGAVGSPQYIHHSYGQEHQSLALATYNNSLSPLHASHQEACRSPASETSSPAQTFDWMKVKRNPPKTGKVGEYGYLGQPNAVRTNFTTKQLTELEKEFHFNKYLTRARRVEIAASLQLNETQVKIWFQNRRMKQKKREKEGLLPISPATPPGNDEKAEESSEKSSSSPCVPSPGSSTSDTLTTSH
Take MWTLVSWVDLTAGLVAGTRCPDGQFCPVACCLDPGGASYSCCRPLLDKWPTTLSRHLGGPCQVDAHCSAGHSCIFTVSGTSSCCPFPEAVACGDGHHCCPRGFHCSADGRSCFQRSGNNSVGAIQCPDSQFECPDFSTCCVMVDGSWGCCPMPQASCCEDRVHCCPHGAFCDLVHTRCITPTGTHPLAKKLPAQRTNRAVALSSSVMCPDARSRCPDGSTCCELPSGKYGCCPMPNATCCSDHLHCCPQDTVCDLIQSKCLSKENATTDLLTKLPAHTVGDVKCDMEVSCPDGYTCCRLQSGAWGCCPFTQAVCCEDHIHCCPAGFTCDTQKGTCEQGPHQVPWMEKAPAHLSLPDPQALKRDVPCDNVSSCPSSDTCCQLTSGEWGCCPIPEAVCCSDHQHCCPQGYTCVAEGQCQRGSEIVAGLEKMPARRASLSHPRDIGCDQHTSCPVGQTCCPSLGGSWACCQLPHAVCCEDRQHCCPAGYTCNVKARSCEKEVVSAQPATFLARSPHVGVKDVECGEGHFCHDNQTCCRDNRQGWACCPYRQGVCCADRRHCCPAGFRCAARGTKCLRREAPRWDAPLRDPALRQLL [A9D]: the “effect of a mutation on the interaction” value is listed as “disrupting interaction strength”.

Variants of B1 are the subject of the next test. Particulars: with ARFGAP1, Q8N6T3-3.
Sequence of ARFGAP1, Q8N6T3-3 (Q8N6T3 other isoform, or with tags, fused parts or gaps): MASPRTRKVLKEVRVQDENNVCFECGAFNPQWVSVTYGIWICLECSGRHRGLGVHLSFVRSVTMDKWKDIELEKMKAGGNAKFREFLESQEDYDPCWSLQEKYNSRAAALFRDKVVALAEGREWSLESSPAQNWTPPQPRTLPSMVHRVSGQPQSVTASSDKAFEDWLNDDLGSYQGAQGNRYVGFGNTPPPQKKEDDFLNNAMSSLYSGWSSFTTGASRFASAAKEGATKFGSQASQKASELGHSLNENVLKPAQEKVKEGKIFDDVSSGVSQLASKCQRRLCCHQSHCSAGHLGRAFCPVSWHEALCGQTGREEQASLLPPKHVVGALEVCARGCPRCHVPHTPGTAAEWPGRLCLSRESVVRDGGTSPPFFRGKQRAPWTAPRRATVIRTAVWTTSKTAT
Regarding MWTLVSWVDLTAGLVAGTRCPDGQFCPVACCLDPGGASYSCCRPLLDKWPTTLSRHLGGPCQVDAHCSAGHSCIFTVSGTSSCCPFPEAVACGDGHHCCPRGFHCSADGRSCFQRSGNNSVGAIQCPDSQFECPDFSTCCVMVDGSWGCCPMPQASCCEDRVHCCPHGAFCDLVHTRCITPTGTHPLAKKLPAQRTNRAVALSSSVMCPDARSRCPDGSTCCELPSGKYGCCPMPNATCCSDHLHCCPQDTVCDLIQSKCLSKENATTDLLTKLPAHTVGDVKCDMEVSCPDGYTCCRLQSGAWGCCPFTQAVCCEDHIHCCPAGFTCDTQKGTCEQGPHQVPWMEKAPAHLSLPDPQALKRDVPCDNVSSCPSSDTCCQLTSGEWGCCPIPEAVCCSDHQHCCPQGYTCVAEGQCQRGSEIVAGLEKMPARRASLSHPRDIGCDQHTSCPVGQTCCPSLGGSWACCQLPHAVCCEDRQHCCPAGYTCNVKARSCEKEVVSAQPATFLARSPHVGVKDVECGEGHFCHDNQTCCRDNRQGWACCPYRQGVCCADRRHCCPAGFRCAARGTKCLRREAPRWDAPLRDPALRQLL [A9D], the “effect of a mutation on the interaction” value is listed as “disrupting interaction strength”.

The variants in a further test derive from B1. The conditions noted are these: with sgta_human SGTA.
Turning to MWTLVSWVDLTAGLVAGTRCPDGQFCPVACCLDPGGASYSCCRPLLDKWPTTLSRHLGGPCQVDAHCSAGHSCIFTVSGTSSCCPFPEAVACGDGHHCCPRGFHCSADGRSCFQRSGNNSVGAIQCPDSQFECPDFSTCCVMVDGSWGCCPMPQASCCEDRVHCCPHGAFCDLVHTRCITPTGTHPLAKKLPAQRTNRAVALSSSVMCPDARSRCPDGSTCCELPSGKYGCCPMPNATCCSDHLHCCPQDTVCDLIQSKCLSKENATTDLLTKLPAHTVGDVKCDMEVSCPDGYTCCRLQSGAWGCCPFTQAVCCEDHIHCCPAGFTCDTQKGTCEQGPHQVPWMEKAPAHLSLPDPQALKRDVPCDNVSSCPSSDTCCQLTSGEWGCCPIPEAVCCSDHQHCCPQGYTCVAEGQCQRGSEIVAGLEKMPARRASLSHPRDIGCDQHTSCPVGQTCCPSLGGSWACCQLPHAVCCEDRQHCCPAGYTCNVKARSCEKEVVSAQPATFLARSPHVGVKDVECGEGHFCHDNQTCCRDNRQGWACCPYRQGVCCADRRHCCPAGFRCAARGTKCLRREAPRWDAPLRDPALRQLL [A9D], the “effect of a mutation on the interaction” value is reported as “disrupting interaction strength”.

Variants of B1 are the subject of another test. The conditions noted are these: with otx1_human OTX1, P32242.
Sequence of otx1_human OTX1, P32242 (P32242 whole entry): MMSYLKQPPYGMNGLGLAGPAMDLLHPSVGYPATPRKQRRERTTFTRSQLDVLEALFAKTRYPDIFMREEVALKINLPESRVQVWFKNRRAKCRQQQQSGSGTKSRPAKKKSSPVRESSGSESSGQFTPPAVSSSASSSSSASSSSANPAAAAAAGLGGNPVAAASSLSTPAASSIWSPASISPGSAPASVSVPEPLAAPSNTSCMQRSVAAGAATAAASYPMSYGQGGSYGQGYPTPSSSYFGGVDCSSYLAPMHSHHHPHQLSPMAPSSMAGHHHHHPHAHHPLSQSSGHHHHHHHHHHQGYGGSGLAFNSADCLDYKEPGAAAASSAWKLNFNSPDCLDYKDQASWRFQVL
Turning to MWTLVSWVDLTAGLVAGTRCPDGQFCPVACCLDPGGASYSCCRPLLDKWPTTLSRHLGGPCQVDAHCSAGHSCIFTVSGTSSCCPFPEAVACGDGHHCCPRGFHCSADGRSCFQRSGNNSVGAIQCPDSQFECPDFSTCCVMVDGSWGCCPMPQASCCEDRVHCCPHGAFCDLVHTRCITPTGTHPLAKKLPAQRTNRAVALSSSVMCPDARSRCPDGSTCCELPSGKYGCCPMPNATCCSDHLHCCPQDTVCDLIQSKCLSKENATTDLLTKLPAHTVGDVKCDMEVSCPDGYTCCRLQSGAWGCCPFTQAVCCEDHIHCCPAGFTCDTQKGTCEQGPHQVPWMEKAPAHLSLPDPQALKRDVPCDNVSSCPSSDTCCQLTSGEWGCCPIPEAVCCSDHQHCCPQGYTCVAEGQCQRGSEIVAGLEKMPARRASLSHPRDIGCDQHTSCPVGQTCCPSLGGSWACCQLPHAVCCEDRQHCCPAGYTCNVKARSCEKEVVSAQPATFLARSPHVGVKDVECGEGHFCHDNQTCCRDNRQGWACCPYRQGVCCADRRHCCPAGFRCAARGTKCLRREAPRWDAPLRDPALRQLL [A9D], the “effect of a mutation on the interaction” value is “disrupting interaction strength”.

Variants of B1 are the subject of the next test. Particulars: with ccd33_human CCDC33, Q8N5R6.
Sequence of ccd33_human CCDC33, Q8N5R6 (Q8N5R6 whole entry): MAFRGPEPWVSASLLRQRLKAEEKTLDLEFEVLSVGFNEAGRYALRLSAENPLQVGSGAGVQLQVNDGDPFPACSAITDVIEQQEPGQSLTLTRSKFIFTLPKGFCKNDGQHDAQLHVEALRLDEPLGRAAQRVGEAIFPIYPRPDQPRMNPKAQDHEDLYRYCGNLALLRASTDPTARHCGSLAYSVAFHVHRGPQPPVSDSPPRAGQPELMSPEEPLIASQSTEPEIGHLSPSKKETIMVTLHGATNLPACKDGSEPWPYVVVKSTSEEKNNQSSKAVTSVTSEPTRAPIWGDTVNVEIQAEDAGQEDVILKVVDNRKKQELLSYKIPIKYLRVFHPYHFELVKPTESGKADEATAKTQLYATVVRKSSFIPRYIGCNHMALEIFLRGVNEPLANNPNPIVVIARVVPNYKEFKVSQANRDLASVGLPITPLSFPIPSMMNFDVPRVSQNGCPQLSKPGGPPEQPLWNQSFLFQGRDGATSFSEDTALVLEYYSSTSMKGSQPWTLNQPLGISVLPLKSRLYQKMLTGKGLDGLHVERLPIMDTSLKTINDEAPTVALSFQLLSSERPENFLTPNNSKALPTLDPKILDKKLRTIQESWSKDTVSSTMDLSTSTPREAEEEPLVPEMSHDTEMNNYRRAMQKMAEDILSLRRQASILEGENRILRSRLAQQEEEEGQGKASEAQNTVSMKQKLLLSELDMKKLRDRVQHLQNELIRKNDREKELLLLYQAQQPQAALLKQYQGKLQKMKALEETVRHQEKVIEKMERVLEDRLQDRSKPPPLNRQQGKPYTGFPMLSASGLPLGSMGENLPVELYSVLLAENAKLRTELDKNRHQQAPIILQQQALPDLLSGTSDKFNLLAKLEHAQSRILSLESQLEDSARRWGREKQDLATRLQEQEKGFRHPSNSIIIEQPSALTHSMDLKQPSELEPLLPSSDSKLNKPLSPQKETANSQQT
As for MWTLVSWVDLTAGLVAGTRCPDGQFCPVACCLDPGGASYSCCRPLLDKWPTTLSRHLGGPCQVDAHCSAGHSCIFTVSGTSSCCPFPEAVACGDGHHCCPRGFHCSADGRSCFQRSGNNSVGAIQCPDSQFECPDFSTCCVMVDGSWGCCPMPQASCCEDRVHCCPHGAFCDLVHTRCITPTGTHPLAKKLPAQRTNRAVALSSSVMCPDARSRCPDGSTCCELPSGKYGCCPMPNATCCSDHLHCCPQDTVCDLIQSKCLSKENATTDLLTKLPAHTVGDVKCDMEVSCPDGYTCCRLQSGAWGCCPFTQAVCCEDHIHCCPAGFTCDTQKGTCEQGPHQVPWMEKAPAHLSLPDPQALKRDVPCDNVSSCPSSDTCCQLTSGEWGCCPIPEAVCCSDHQHCCPQGYTCVAEGQCQRGSEIVAGLEKMPARRASLSHPRDIGCDQHTSCPVGQTCCPSLGGSWACCQLPHAVCCEDRQHCCPAGYTCNVKARSCEKEVVSAQPATFLARSPHVGVKDVECGEGHFCHDNQTCCRDNRQGWACCPYRQGVCCADRRHCCPAGFRCAARGTKCLRREAPRWDAPLRDPALRQLL [A9D], the “effect of a mutation on the interaction” value was “disrupting interaction strength”.

Another test covers variants of B2. The conditions noted are these: with pls1_human PLSCR1, O15162.
As for MDIKNSPSSLNSPSSYNCSQSILPLEHGSIYIPSSYVDSHHEYPAMTFYSPAVMNYSIPSNVTNLEGGPGRQTTSPNVLWPTPGHLSPLVVHRQLSHLYAEPQKSPWCEARSLEHTLPVNRETLKRKVSGNRCASPVTGPGSKRDAHFCAVCSDYASGYHYGVWSCEGCKAFFKRSIQGHNDYICPATNQCTIDKNRRKSCQACRLRKCYEVGMVKCGSRRERCGYRLVRRQRSADEQLHCAGKAKRSGGHAPRVRELLLDALSPEQLVLTLLEAEPPHVLISRPSAPLTEASMMMSLTKLADKELVHMISWAKKIPGMRGNA [F289L], the “effect of a mutation on the interaction” value is on record as “with no effect”.

Variants of B3 are the subject of the next test. The conditions noted are these: with rnf41_human RNF41, Q9H4P4.
Turning to MGDPERPEAAGLDQDERSSSDTNESEIKSNEEPLLRKSSRRFVIFPIQYPDIWKMYKQAQASFRTAEEVDLSKDLPHWNKLKADEKYFISHILAFFAASDGIVNENLVERFSQEVQVPEARCFYGFQILIENVHSEMYSLLIDTYIRDPKKREFLFNAIETMPYVKKKADWALRWIADRKSTFGERVVAFAAVEGVFFSGSFAAIFWLKKRGLMPGLTFSNELISRDEGLHCDFACLMFQYLVNKPSEERVREIIVDAVKIEQEFLTEALPVGLIGMNCILMKQYIEFVADRLLVELGFSKVFQAENPFDFMENISLEGKTNFFEKRVSEYQRFAVMAETTDNVFTLDADF [W64R], the “effect of a mutation on the interaction” value is given as “disrupting interaction strength”.

Regarding MGDPERPEAAGLDQDERSSSDTNESEIKSNEEPLLRKSSRRFVIFPIQYPDIWKMYKQAQASFWTAEEVDLSKDLPHWNKLKADEKYFISHILAFFAASDGIVNENLVERFSQEVQVPEARCFYGFQILIENVHSEMYSLLIDTYIRDPKKREFLFNAIETMPYVKKKADWALRWIADRKSTFGERVVAFAAVEGVFFSGSFAAIFWLKKRGLMPGLTFSNELISRDEGLHCDFAFLMFQYLVNKPSEERVREIIVDAVKIEQEFLTEALPVGLIGMNCILMKQYIEFVADRLLVELGFSKVFQAENPFDFMENISLEGKTNFFEKRVSEYQRFAVMAETTDNVFTLDADF [C236F], the “effect of a mutation on the interaction” value is given as “with no effect”.
